Read-outs that look alike come from different tables or passages of the source. Non-standard residues stand in square brackets, D forms with d. No end group written: not given here. *: point of attachment. Biotin = O=C1N[C@H]2[C@H](CS[C@H]2CCCCC(=O)*)N1; βAla = NCCC(=O)O
How the values were obtained:
[1] = biological target: T1, endogenous EphA2 expressed in PC3 prostate cancer cells (UniProt P29317 24-976, limits assumed); assay: cell-based or functional assay
[2] = biological target: T2, EphA2 extracellular domain fused to the Fc portion of an antibody (EphA2 Fc); assay: competition ELISA: inhibition of ephrin-A5 AP binding to immobilized EphA2 Fc; average ± SE (number of experiments)
T2 construct: extracellular domain; Immobilized in the ELISAs
T2 sequence (P29317 whole entry, the tested form may be a part): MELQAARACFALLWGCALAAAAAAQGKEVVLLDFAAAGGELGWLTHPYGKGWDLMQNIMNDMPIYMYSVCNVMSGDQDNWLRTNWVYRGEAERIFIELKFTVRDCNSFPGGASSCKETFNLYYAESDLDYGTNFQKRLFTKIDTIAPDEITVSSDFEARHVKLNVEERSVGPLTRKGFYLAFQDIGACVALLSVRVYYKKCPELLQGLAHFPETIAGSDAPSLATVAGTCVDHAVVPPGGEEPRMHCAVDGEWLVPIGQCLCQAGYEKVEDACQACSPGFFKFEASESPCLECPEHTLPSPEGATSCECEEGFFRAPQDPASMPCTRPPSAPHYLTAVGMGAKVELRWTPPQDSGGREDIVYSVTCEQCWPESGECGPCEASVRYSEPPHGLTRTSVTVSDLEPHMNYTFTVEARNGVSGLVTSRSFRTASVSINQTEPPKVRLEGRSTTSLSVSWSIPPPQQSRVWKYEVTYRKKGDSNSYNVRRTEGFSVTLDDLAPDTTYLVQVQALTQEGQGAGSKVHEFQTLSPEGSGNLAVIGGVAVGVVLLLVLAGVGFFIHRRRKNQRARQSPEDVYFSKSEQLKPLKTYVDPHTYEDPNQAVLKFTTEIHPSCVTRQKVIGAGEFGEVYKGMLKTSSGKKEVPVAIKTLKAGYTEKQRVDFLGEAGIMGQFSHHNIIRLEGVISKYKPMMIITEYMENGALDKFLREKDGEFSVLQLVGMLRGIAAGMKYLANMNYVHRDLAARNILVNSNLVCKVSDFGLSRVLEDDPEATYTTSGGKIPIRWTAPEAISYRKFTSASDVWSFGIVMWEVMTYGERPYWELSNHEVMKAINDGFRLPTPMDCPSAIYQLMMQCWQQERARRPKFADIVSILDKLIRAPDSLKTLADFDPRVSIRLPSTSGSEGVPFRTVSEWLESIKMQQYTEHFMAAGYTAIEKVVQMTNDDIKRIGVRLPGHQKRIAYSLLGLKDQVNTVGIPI

[3] = biological target: T3, EphA2 ligand binding domain (EphA2 LBD, residues 28-200) with N-terminal MASQGPG and C-terminal Ala-6xHis tag (UniProt P29317 28-200); assay: ITC, peptide titrated into EphA2 LBD, 23 °C; average ± SE (number of experiments)
T3 construct: range 28-200; Expressed in E. coli Origami 2 (DE3); used for ITC and crystallization
T3 sequence (P29317 other isoform, or with tags, fused parts or gaps limits assumed, form in doubt): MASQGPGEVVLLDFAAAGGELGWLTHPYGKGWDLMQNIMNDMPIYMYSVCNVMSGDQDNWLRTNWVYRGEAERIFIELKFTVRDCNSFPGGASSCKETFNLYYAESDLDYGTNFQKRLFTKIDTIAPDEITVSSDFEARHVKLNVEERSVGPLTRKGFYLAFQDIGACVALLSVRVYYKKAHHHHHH

[4] = biological target: T2, EphA2 extracellular domain fused to the …; assay: ELISA, inhibition of ephrin-A5 AP binding to immobilized EphA2 Fc; representative experiment; concentrations in nM
[5] = biological target: T1, endogenous EphA2 expressed in PC3 …; assay: cell-based or functional assay; remark: listed apart in the source
[6] = biological target: T1, endogenous EphA2 expressed in PC3 …; assay: cell-based or functional assay; remark: listed apart in the source
[7] = biological target: T1, endogenous EphA2 expressed in PC3 …; assay: cell-based or functional assay; remark: listed apart in the source
[8] = biological target: T1, endogenous EphA2 expressed in PC3 …; assay: cell-based or functional assay; remark: listed apart in the source
[9] = biological target: T1, endogenous EphA2 expressed in PC3 …; assay: cell-based or functional assay; remark: listed apart in the source
[10] = biological target: T1, endogenous EphA2 expressed in PC3 …; assay: cell-based or functional assay; remark: listed apart in the source
[11] = biological target: T1, endogenous EphA2 expressed in PC3 …; assay: cell-based or functional assay; remark: listed apart in the source
[12] = biological target: the molecule itself; assay: quantitative FRET in HEK293 cells, monomer-dimer fit; dimerization of the mutant without peptide; row assigned as for Kdiss
[13] = biological target: the molecule itself; assay: quantitative FRET in HEK293 cells, monomer-dimer fit; dimerization of the mutant in the presence of 50 µM YSA-GSGSK-bio; row assigned as for Kdiss
[14] = biological target: T2, EphA2 extracellular domain fused to the …; assay: competition ELISA: inhibition of ephrin-A5 AP binding to EphA2 Fc

Q: With [βAla]WLAYPDSVPYRPK (also called BA-WLA-YRPK) [βA-WLA-YRPK] as the binder, how does the “EC50 of EphA2 pY588 induction, immunoblot, PC3 cells, 15 min” value (“EC50 of EphA2 pY588 induction” below) [1] read?
A: 300 nM

Q: What about the “IC50 of AKT S473 phosphorylation (pAKT), immunoblot, PC3 cells, 15 min” value (shortened to “IC50 of AKT S473 phosphorylation (pAKT)”) [1] of the same binder?
A: 500 nM

Q: And the IC50 [2]?
A: 55 nM

Q: What about the Kd [3] of the same binder?
A: 190 nM

Q: And the IC50 [4]?
A: 53 nM

Q: Which results are given for [βAla]WLAYPDSVPYRPK(Ac) [βA-WLA-YRP-acK]?
A: EC50 of EphA2 pY588 induction, immunoblot, PC3 cells, 15 min [5]: 190 nM; IC50 of AKT S473 phosphorylation (pAKT), immunoblot, PC3 cells, 15 min [5]: 370 nM

Q: With [βAla]WLAYPDSVPYRPK-NH2 (also called BA-WLA-YRPKam) [βA-WLA-YRPKam] as the binder, how does the “EC50 of restoration of pAKT (S473) in cells treated with 0.1 µg/ml ephrin-A1 Fc, immunoblot, PC3 cells” value [6] read?
A: 2.4 µM

Q: What about the “IC50 of inhibition of EphA2 pY588 induced by 0.1 µg/ml ephrin-A1 Fc, immunoblot, PC3 cells” value [6] of the same binder?
A: 3.2 µM

Q: What about the IC50 [2] of the same binder?
A: 19 nM

Q: And the Kd [3]?
A: 110 nM

Q: And the IC50 [4]?
A: 24 nM

Q: With [βAla]WLAYPDSVPYK(Biotin) [βA-WLA-YK-bio] as the binder, how does the “IC50 of AKT S473 phosphorylation (pAKT)” value [7] read?
A: 0.97 µM

Q: [βAla]WLAYPDSVPYGSK(Biotin) [βA-WLA-YGSK-bio] was tested. Which “EC50 of EphA2 pY588 induction” value [8] did it give?
A: 2.2 µM

Q: And the “IC50 of AKT S473 phosphorylation (pAKT)” value [8]?
A: 0.93 µM

Q: With [βAla]WLAYPDSVPYGSGK(Biotin) [βA-WLA-YGSGK-bio] as the binder, how does the “EC50 of EphA2 pY588 induction” value [9] read?
A: 1 µM

Q: For [βAla]WLAYPDSVPYSPK(Biotin) [βA-WLA-YSPK-bio], which “EC50 of EphA2 pY588 induction” value [10] is on record?
A: 37 nM

Q: What about the “IC50 of AKT S473 phosphorylation (pAKT)” value [10] of the same binder?
A: 30 nM

Q: How did the “EC50 of EphA2 pY588 induction” value [11] turn out when [βAla]WLAYPDSVPYRPK(Biotin)-NH2 [βA-WLA-YRPKam-bio] was run?
A: 100 nM

Q: What about the “IC50 of AKT S473 phosphorylation (pAKT)” value [11] of the same binder?
A: 210 nM

B1: βA-WLA-YRPK-bio (peptide)
peptide: [βAla]WLAYPDSVPYRPK(Biotin)
notes: also called bA-WLA-YRPK-bio; BA-WLA-YRPK-bio
Q: Which IC50 [4] does the source give for B1 here?
A: 37 nM

Q: KAWLAYPDSVPYRPK (biotin on the N-terminal lysine (K-bio); C-terminal amide (am)) [K-bioA-WLA-YRPKam] was tested. Which IC50 [4] did it give?
A: 14 nM

B2: L223R/L254R/V255R (receptor)
chain: AQGKEVVLLDFAAAGGELGWLTHPYGKGWDLMQNIMNDMPIYMYSVCNVMSGDQDNWLRTNWVYRGEAERIFIELKFTVRDCNSFPGGASSCKETFNLYYAESDLDYGTNFQKRLFTKIDTIAPDEITVSSDFEARHVKLNVEERSVGPLTRKGFYLAFQDIGACVALLSVRVYYKKCPELLQGLAHFPETIAGSDAPSRATVAGTCVDHAVVPPGGEEPRMHCAVDGEWRRPIGQCLCQAGYEKVEDACQACSPGFFKFEASESPCLECPEHTLPSPEGATSCECEEGFFRAPQDPASMPCTRPPSAPHYLTAVGMGAKVELRWTPPQDSGGREDIVYSVTCEQCWPESGECGPCEASVRYSEPPHGLTRTSVTVSDLEPHMNYTFTVEARNGVSGLVTSRSFRTASVSINQTEPPKVRLEGRSTTSLSVSWSIPPPQQSRVWKYEVTYRKKGDSNSYNVRRTEGFSVTLDDLAPDTTYLVQVQALTQEGQGAGSKVHEFQTLSPEGSGNLAVIGGVAVGVVLLLVLAGVGFFIHRRRKNQRARQSPEDVYFSKSEQLKPLKTYVDPHTYEDPNQAVLKFTTEIHPSCVTRQKVIGAGEFGEVYKGMLKTSSGKKEVPVAIKTLKAGYTEKQRVDFLGEAGIMGQFSHHNIIRLEGVISKYKPMMIITEYMENGALDKFLREKDGEFSVLQLVGMLRGIAAGMKYLANMNYVHRDLAARNILVNSNLVCKVSDFGLSRVLEDDPEATYTTSGGKIPIRWTAPEAISYRKFTSASDVWSFGIVMWEVMTYGERPYWELSNHEVMKAINDGFRLPTPMDCPSAIYQLMMQCWQQERARRPKFADIVSILDKLIRAPDSLKTLADFDPRVSIRLPSTSGSEGVPFRTVSEWLESIKMQQYTEHFMAAGYTAIEKVVQMTNDDIKRIGVRLPGHQKRIAYSLLGLKDQVNTVGIPI
modifications: A C-terminal fluorescent protein tag (mTURQ donor or EYFP acceptor) is not carried in the letters.
notes: also called EphA2 L223R/L254R/V255R; clustering interface triple mutant; not shown: C-terminal fluorescent protein (mTURQ or EYFP) and any linker to it
Q: How did the ΔG of dimerization [12] turn out when B2 was run?
A: -3.8 kcal/mol

Q: And the ΔG of dimerization [13]?
A: -5 kcal/mol

Q: Which IC50 [2] does the source give for YSAYPDSVPMMSGSGSK [YSA-GSGSK] here?
A: 4500 nM

Q: And the Kd [3]?
A: 8000 nM

Q: And the IC50 [4]?
A: 4500 nM

Q: [βAla]WLAYPDSVPY-NH2 (also called bA-WLA-Yam; BA-WLA-Yam) [βA-WLA-Yam] was tested. Which IC50 [2] did it give?
A: 410 nM

Q: What about the “fold improvement in potency against βA-WLAam” value [14] of the same binder?
A: ~2 fold

Q: And the IC50 [4]?
A: 440 nM

B3: βA-WLA-YSK-bio (peptide)
peptide: [βAla]WLAYPDSVPYSK(Biotin)
notes: also called bA-WLA-YSK-bio; BA-WLA-YSK-bio
Q: With B3 as the binder, how does the IC50 [2] read?
A: 300 nM

B4: YSA-GSGSK-bio (peptide)
peptide: YSAYPDSVPMMSGSGSK(Biotin)
notes: YSA with C-terminal GSGSK linker and biotin on the lysine side chain; also called YSA-GSGSK-biotin; YSA-GSGSK-bio peptide
Q: How did the IC50 [2] turn out when B4 was run?
A: 820 nM
